For assay [1], the target named is T1, PhoCle0.1 large fragment after photocleavage (remainder of the protein).
T1 chain: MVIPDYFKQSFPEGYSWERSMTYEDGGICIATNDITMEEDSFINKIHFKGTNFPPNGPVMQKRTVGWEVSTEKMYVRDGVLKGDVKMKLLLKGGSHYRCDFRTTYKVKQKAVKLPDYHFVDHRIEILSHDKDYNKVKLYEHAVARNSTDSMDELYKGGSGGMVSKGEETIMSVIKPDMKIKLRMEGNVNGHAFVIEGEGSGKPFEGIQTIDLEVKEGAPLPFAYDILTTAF
As to the kind of experiment: spectroscopic and SDS-PAGE analyses of the protein before and after illumination.

Assay [2] addresses T2, PhoCle0.3 large fragment after photocleavage (~20 kDa remainder of the PhoCle domain).
T2 chain: T1 chain with F101Y, M171T, I180N
As to the kind of experiment: decay of red fluorescence/absorbance following photocleavage.

This note sets out measurements from US20170190749A1.

Where a chain is given by its changes, count along the chain named.

For HYGNRVFTKYPR (modifications not checked) [PhoCle0.1 small chromophore-containing peptide fragment after photocleavage], in assay [1], the t0.5 of spontaneous dissociation after photocleavage amounted to 500 s.

In turn, HYGNRVFTKYPR (modifications not checked) [PhoCle0.3 small chromophore-containing peptide fragment after photocleavage] gave a t0.5 of peptide dissociation after photocleavage in assay [2] of 120 s.
